Legend:
[1] = target: CD8 alpha (CD8a) on CD8+ T cells / PBMC (Homo sapiens, UniProt P01732 P01732:22-235); assay: flow; apparent Kd on CD8+ T cells, 4 C, 5.5 mM Mg; binding reduced 73-77% by CD8a siRNA; details: label: 5'-FAM (cells); biotin (BLI)
[2] = target: CD8 alpha (CD8a) extracellular domain (Homo sapiens, UniProt P01732 P01732:22-182); assay: BLI; 25 C, 5.5 mM Mg, tRNA, BSA, 0.01% tween-20; details: tags: Sino Biological; label: 5'-FAM (cells); biotin (BLI)
Procedure: The observed differences in binding affinity values determined by the two methods is expected. Mass transport limitations not present with BLI but present when staining cells in static wells will favor re-binding and thereby limit dissociation, improving the apparent KD of the faster dissociating A3 relative to the other aptamers.
BLI studies were conducted on a ForteBio Octet Red96 instrument at 25° C. with sample agitation at 1000 rpm. The sample buffer used for all steps was comprised of binding buffer with 0.01% tween-20. Streptavidin-coated biosensors were loaded with 50nM biotinylated aptamer until all sensors (except for the reference) reached a capture threshold of 0.5 nm. After a 100 second rinse and baseline steps in buffer alone, sensors were exposed to a 1:3 dilution series of recombinant human CD8a protein (Sino Biological) ranging from 150nM to 5.56nM. Association with protein was monitored for 1200 sec, and dissociation was carried out for 600 second in buffer alone. Data analysis was carried out using Octet Data Analysis 9.0 software (ForteBio). Kinetic constants were calculated by conducting a global fit of the several processed association and dissociation curves from the protein dilution series to a 1:1 binding model. The quality of the fit was evaluated by the R2 and χ2 values.

Chain of CD8 alpha (CD8a) on CD8+ T cells / PBMC (P01732 22-235, one chain of several): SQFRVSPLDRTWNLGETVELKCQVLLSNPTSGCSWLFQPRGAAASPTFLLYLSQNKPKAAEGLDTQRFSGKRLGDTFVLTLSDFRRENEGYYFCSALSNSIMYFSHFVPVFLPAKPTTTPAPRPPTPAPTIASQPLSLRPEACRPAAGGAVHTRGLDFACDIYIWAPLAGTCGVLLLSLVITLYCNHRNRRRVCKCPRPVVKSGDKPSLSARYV
Chain of CD8 alpha (CD8a) extracellular domain (P01732 22-182, one chain of several): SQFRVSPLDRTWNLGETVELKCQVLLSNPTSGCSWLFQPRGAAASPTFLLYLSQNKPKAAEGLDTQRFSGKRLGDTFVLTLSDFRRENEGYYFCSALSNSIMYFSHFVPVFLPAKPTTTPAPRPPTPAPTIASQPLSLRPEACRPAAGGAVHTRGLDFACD

Row | Binder | Kd [1] | Kd [2]
1 | A3 (ssDNA) DNA: ATCCAGAGTGACGCAGCAACAGAGGTGTAGAAGTACACGTGAACAAGCTTGAAATTGTCTCTGACAGAGGTGGACACGGTGGCTTAGT | 1.9 nM | 
2 | A1 (ssDNA) DNA: ATCCAGAGTGACGCAGCACGCAGCACCCGTGGTAGTGTATCAGGGAGACACTACGTGATGCAGCTTGAAATGGACACGGTGGCTTAGT | 18.3 nM | 20.1 nM
3 | A8 (ssDNA) DNA: ATCCAGAGTGACGCAGCAGCTCGATCGTATAGCCGTGACGCAGCTTGAAATGGGATCGCGTCCACAGTTTTGGACACGGTGGCTTAGT | 2.4 nM | 
